Results: paper PMC11386428

Assays:
[1] = target: tau4R, the microtubule-binding region with R1-R4, labelled with Alexa Fluor 488 (human (by the printed UniProt entry)); assay: fluorescence correlation spectroscopy (FCS); ~20 nM fluorescent protein (Alexa 488-labelled tau construct or eGFP) with unlabelled αS seeds at 20, 60 or 100 nM (monomer units); 20°C; 50 mM Na2HPO4, 50 mM NaCl pH 7.0; two-component diffusion fit, medians of type III curves
[2] = target: tau_(1N4R), full-length 1N4R tau, labelled with Alexa Fluor 488 (human (by the printed UniProt entry)); assay: as above

Substance “αS_(1-100) seeds (sonicated fibrils of N-terminally acetylated αS_(1-100)) (from UniProt P37840 1-100) (complex)” has a Q (brightness of bound tau relative to monomer tau) at 20 nM αS (1-100) seeds [1] of 1, a Q (brightness of bound tau relative to monomer tau) at 60 nM αS (1-100) seeds [1] of 1 and a Q (brightness of bound tau relative to monomer tau) at 100 nM αS (1-100) seeds [1] of 1. The median fB (fraction of tau with τD2) at 20 nM αS (1-100) seeds [1] was 0.023, the median fB (fraction of tau with τD2) at 60 nM αS (1-100) seeds [1] was 0.11 and the median fB (fraction of tau with τD2) at 100 nM αS (1-100) seeds [1] was 0.11. The median type III τ (D2app) at 20 nM αS (1-100) seeds [1] was 2.1 ms, the median type III τ (D2app) at 60 nM αS (1-100) seeds [1] was 1.8 ms and the median type III τ (D2app) at 100 nM αS (1-100) seeds [1] was 2.8 ms. It also gave a Q (brightness of bound tau relative to monomer tau) at 20 nM αS (1-100) seeds [2] of 2.3, a Q (brightness of bound tau relative to monomer tau) at 60 nM αS (1-100) seeds [2] of 2 and a Q (brightness of bound tau relative to monomer tau) at 100 nM αS (1-100) seeds [2] of 2.7. The median fB (fraction of tau with τD2) at 20 nM αS (1-100) seeds [2] was 0.055, the median fB (fraction of tau with τD2) at 60 nM αS (1-100) seeds [2] was 0.053 and the median fB (fraction of tau with τD2) at 100 nM αS (1-100) seeds [2] was 0.16. It also gave a median type III τ (D2app) at 20 nM αS (1-100) seeds [2] of 2.8 ms, a median type III τ (D2app) at 60 nM αS (1-100) seeds [2] of 2.3 ms and a median type III τ (D2app) at 100 nM αS (1-100) seeds [2] of 2.2 ms.
